Results on 1 molecule are retold here after patent US20230416329A1, “A PEPTIDE WITH DISULFIDE BONDS AND INHIBITORY ACTIVITY AGAINST SERINE PROTEASES, DERIVED HYBRID PEPTIDES THEREOF, AND USES THEREOF” (INSTITUTE OF MATERIA MEDICA , CHINESE ACADEMY OF MEDICAL …, priority 2020, published 2023).

The test system of the assay is P407-induced hyperlipidemia mice. The assay can be described thus: Effect of Repatha on serum TC and LDL-C in P407-induced hyperlipidemia mice (model validation). The class given is in vivo, mouse. Here is the method: Model preparation and validation: Normal ICR mice were fasted overnight with water ad libitum. The poloxamer 407 (P407, 500 mg/kg) was intraperitoneally injected on the next day. […] The clinical drug Repatha was injected subcutaneously at a dose of 40 mg/kg for 24 hours, followed by intraperitoneal injection of P407. The serum TC and LDL-C levels were measured 24 hours after injection of P407 (Table 25).

The mark [1] stands for this setting: serum, Repatha 40 mg/kg subcutaneous, 24 hours after P407 injection.

B1: Repatha: the clinical (marketed) drug Repatha, positive control in the P407 hyperlipidemia model (antibody, chains of the INN, looked up, V domains shown)
VH: EVQLVQSGAEVKKPGASVKVSCKASGYTLTSYGISWVRQAPGQGLEWMGWVSFYNGNTNYAQKLQGRGTMTTDPSTSTAYMELRSLRSDDTAVYYCARGYGMDVWGQGTTVTVSS
VL: ESALTQPASVSGSPGQSITISCTGTSSDVGGYNSVSWYQQHPGKAPKLMIYEVSNRPSGVSNRFSGSKSGNTASLTISGLQAEDEADYYCNSYTSTSMVFGGGTKLTVL
As to B1, the “serum TC and LDL-C levels (in words)” value (40 mg/kg s.c., P407 500 mg/kg i.p., ICR mice) was “significantly reduced the serum TC and LDL-C levels”. For the same molecule, under setting [1], the LDL-C is 0.364 ± 0.097 mmol/L and the TC was found to be 190.0 ± 36.6 mg/dL.
